Data as given in patent US20250281410A1, “HIGH-THROUGHPUT PREPARATION OF MICROPARTICLES WITH PULSATILE RELEASE” (William Marsh Rice University, priority 2021, published 2025).

What was measured:
Avastin = assay: Release of active Avastin from microparticles with excipients, activity by ELISA; details: excipients added during fabrication
Description: FIGS. 27A-27F show the release of Avastin from microparticles. FIG. 27A is a heat map depicting the sum of the percentage of Avastin inside the microparticles and Avastin released from the microparticles. Data is normalized to amount of Avastin filled into microparticles. […] Avastin activity was measured using an ELISA. The excipients that were studied were bovine serum albumin (BSA) and sorbitol: monosodium glutamate (MSG): magnesium chloride (MgCl2). FIGS. 27B-27I show plots of the release kinetics of the microparticle formulations of FIG. 27A. The release kinetics depicted in FIG. 27B are for a microparticle with 3 μg BSA as an excipient. The release kinetics depicted in FIG. 27C are for a microparticle with 2 μg BSA as an excipient. […]
Due to concern about the thermal stress potential involved when heating up biotherapeutics which may be desirable as a payload of the microparticles described herein, the temperature of the microparticles was measured during the sealing process to determine the peak temperature and duration of exposure to elevated temperature to quantify the thermal stress that the protein might experience (FIG. 25). […] To determine if these temperatures would damage encapsulated biotherapeutics, the stability of horseradish peroxidase (HRP), was assessed after every step in the formulation process (dispensing, drying, and sealing). […]

[1] = cited from earlier work

Row | Molecule | Avastin remaining after release (Avastin) | solubility in water [1]
1 | Avastin: a fragile biotherapeutic used to treat certain cancers | significant amounts | 
2 | CC(C)Cn1cnc2c(N)nc3ccccc3c21 [imiquimod] |  | approximately 2 μg/mL
